Measured values from publication PMC7860981, “Mitochondrial Enzymes of the Urea Cycle Cluster at the Inner Mitochondrial Membrane” (Frontiers in Physiology, 2020).

Biological target: T1, carbamylphosphate synthetase 1 (CPS1), endogenous in mouse liver mitochondria (mouse (endogenous in mouse liver …, UniProt Q8C196 39-1500))
T1 construct: carbamylphosphate synthetase 1, mouse, endogenous in liver mitochondria; also called CPSI; source: endogenous, mouse liver mitochondria, lysate (PBS with 2% CHAPS)
T1 sequence (looked up): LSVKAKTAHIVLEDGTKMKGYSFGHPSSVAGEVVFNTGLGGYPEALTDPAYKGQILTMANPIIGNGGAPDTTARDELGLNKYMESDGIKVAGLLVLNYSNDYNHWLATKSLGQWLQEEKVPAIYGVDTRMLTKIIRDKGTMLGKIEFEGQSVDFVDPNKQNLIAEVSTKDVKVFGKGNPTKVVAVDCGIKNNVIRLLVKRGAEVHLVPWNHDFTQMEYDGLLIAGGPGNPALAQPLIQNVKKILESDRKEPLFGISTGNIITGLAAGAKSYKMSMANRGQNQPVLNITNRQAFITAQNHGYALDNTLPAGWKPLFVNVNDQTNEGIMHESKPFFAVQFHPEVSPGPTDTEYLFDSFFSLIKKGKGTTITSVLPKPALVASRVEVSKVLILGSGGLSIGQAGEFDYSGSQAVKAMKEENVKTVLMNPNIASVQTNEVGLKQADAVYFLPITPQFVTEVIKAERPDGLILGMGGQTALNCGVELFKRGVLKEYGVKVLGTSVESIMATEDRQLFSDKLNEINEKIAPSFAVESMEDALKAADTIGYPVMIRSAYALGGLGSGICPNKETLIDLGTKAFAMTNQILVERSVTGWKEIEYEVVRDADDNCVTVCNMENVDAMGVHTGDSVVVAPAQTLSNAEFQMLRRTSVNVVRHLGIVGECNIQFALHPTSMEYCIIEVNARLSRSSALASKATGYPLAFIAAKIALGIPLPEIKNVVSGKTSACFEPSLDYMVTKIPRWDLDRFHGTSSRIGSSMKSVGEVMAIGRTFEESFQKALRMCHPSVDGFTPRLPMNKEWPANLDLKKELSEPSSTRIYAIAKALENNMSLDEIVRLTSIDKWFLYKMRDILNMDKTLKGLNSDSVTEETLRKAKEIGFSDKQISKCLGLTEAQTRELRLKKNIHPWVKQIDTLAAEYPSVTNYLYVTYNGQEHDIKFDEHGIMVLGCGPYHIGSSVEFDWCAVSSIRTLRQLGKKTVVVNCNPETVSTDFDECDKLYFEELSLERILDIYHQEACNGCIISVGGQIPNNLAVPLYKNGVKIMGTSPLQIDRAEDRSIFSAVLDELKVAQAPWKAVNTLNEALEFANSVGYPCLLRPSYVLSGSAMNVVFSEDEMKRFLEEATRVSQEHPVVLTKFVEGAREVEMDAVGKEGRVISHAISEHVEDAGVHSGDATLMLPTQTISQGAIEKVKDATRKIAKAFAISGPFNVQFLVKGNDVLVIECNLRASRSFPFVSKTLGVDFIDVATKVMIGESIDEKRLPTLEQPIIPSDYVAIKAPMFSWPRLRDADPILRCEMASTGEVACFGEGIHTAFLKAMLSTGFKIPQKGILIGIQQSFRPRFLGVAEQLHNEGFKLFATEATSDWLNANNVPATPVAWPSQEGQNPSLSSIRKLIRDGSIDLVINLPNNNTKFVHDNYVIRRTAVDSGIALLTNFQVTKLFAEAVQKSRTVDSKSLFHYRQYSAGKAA
Assay: co-IP; competition experiment: purified recombinant mVS (10 to 30-fold molar excess over CPS1) mixed 1:1 (v/v) with mitochondrial lysate (2 mg/ml protein), added to magnetic beads cross-linked to anti-CPS1 antibodies; immunoblot for NAGS, densitometry of NAGS-M bands
Details: one partner purified

B1: recombinant mouse variable segment (mVS) of NAGS (domain or fragment, UniProt Q8R4H7 49-117, looked up)
chain: LSTARAHAEDAEGAKGRVQSPAVEEPSWTPLPTPLESPAPPAGRSLVQRDIQAFLNQCGASPGEARHWL
notes: Predicted molecular weight 9.675 kDa as printed
- fold decrease of mNAGS co-immunoprecipitated with CPS1 in the presence of mVS: 5 fold
